In US20070167369A1, “Novel use of isolated polypeptide comprising four FAS-1 domains, EM1 domain and RGD motif” (KYUNGPOOK NATIONAL UNIVERSITY INDUSTRY-ACADEMIC COOPERATION …, priority 2004, published 2007):

Columns and labels:
[1] = test system: HUVECs; assay: Adhesion of endothelial cells to fibronectin, vitronectin or collagen (Example 5-1); assay type: cell-based, human
Method: Flat-bottomed 96-well ELISA (enzyme-linked immunosorbent assay) plates (Costar, Corning Inc., NY) were incubated overnight at 4° C. with 10 μg/ml of fibronectin (Promega Inc., USA), vitronectin (Promega Inc., USA) and collagen, respectively, to coat the well surface. Then, a test was performed in the same manner as in Example 4-1 above.

[2] = test system: HUVECs; assay: Migration of endothelial cells toward fibronectin, vitronectin or collagen (Example 5-2); assay type: cell-based, human
Method: The undersurface of a transwell plate was coated with each of fibronectin, vitronectin and collagen, and then, a test was performed in the same manner as in Example 4-2 above.

[3] = test system: HUVECs; assay: Apoptosis by annexin V staining/FACS, endothelial cells (Example 7-1); assay type: cell-based, human; details: 48 hours
Method: Annexin V is a protein binding to calcium-dependent phospholipid, and known to have a strong affinity for phosphatidylserine such that apoptosis can be assayed. For this reason, the present inventors performed a test using an annexin V staining kit (Santa Cruz Biotechnology Inc.).
Each of human umbilical vein endothelial cells (HUVECs) and melanoma cells (B16F10) was suspended in medium at a density of 5×10^5 cells/ml, added to each well of […] and incubated at 37° C. overnight. On the next day, the cells were washed one time with PBS buffer, then added with serum-free medium and incubated at 37° C. for 24 hours. 0.2% FBS-containing fresh medium was treated with the fas-1 domain (βig-h3 D-IV) prepared in Example 1, at various concentrations, then added to each well of the plate and incubated at 37° C. for 48 hours. A negative control was added with PBS, a positive control was incubated with TNF-α or Vitamin C, which are known to induce the apoptosis of endothelial cells and melanoma cells. FITC (fluorescein isothiocyanate)-conjugated annexin V antibodies were added and allowed to react at 4° C. for one hour. After completion of the reaction, unbound annexin V antibodies were removed with PBS buffer, and the apoptosis of the cells was analyzed using FACS (BD Biosciences).

[4] = test system: β5/HEK293 cells; assay: Apoptosis by annexin V staining, β5/HEK293 cells expressing αvβ5 integrin (Example 8); assay type: cell-based; details: annexin V FACS
Method: To identify an integrin that mediates the induction of endothelial cell apoptosis by the fas-1 domain, the present inventors performed a test using HEK293 cells (β3/HEK293 and β5/HEK293) which had been transfected such as to express αvβ3 integrin or αvβ5 integrin.
Meanwhile, a β5/HEK293 cell that expresses αvβ5 integrin was prepared in the following manner. In order to construct a human β5 integrin expression vector, RT-PCR using human placenta poly(A)^+ RNA as a template was first performed to prepare a 2.8-kb β5 cDNA (Suzuki et al., Proc. Natl. Acad. Sci. USA, 87:5354-5358, 1990). The amplified β5 cDNA was digested with EcoRI, and then cloned into a pcDNA3 vector (Invitrogen). The resulting vector was named “β5/pcDNA3”. Thereafter, 1 μg of the β5/pcDNA3 vector was introduced into HEK293 cells (ATCC, catalog No. CRL 1573) by lipofectamin (Gibco). A stable transfected cell was screened using 1 mg/ml of G418. The cell transfected with the β5/pcDNA3 vector was named “β5/HEK293”.
pc/HEK293 cells, β3/HEK293 cells and β5/HEK293 cells were stained with annexin V to identify an integrin that mediates the induction of endothelial cell apoptosis by the fas-1 domain. Each of the cells was suspended in medium at a density of 5×10^5 cells/ml, added to each well of 6-well plated and incubated at 37° C. overnight. Following this, a test was performed in the same manner as in Example 7-1 above.

[5] = test system: HUVECs; assay: Endothelial tube formation assay on Matrigel (Examples 9-1 and 11); assay type: cell-based, human
Method: First, 100 μl of Matrigel (Chemicon, International Inc, Temecula, Calif.) was added to each well of a 96-well plate and allowed to polymerize. HUVECs were suspended in medium at a density of 3×10^5 cells/ml, and 0.1 ml of the cell suspension was added to each well of the plate coated with Matrigel. At this time, 5 μM or 10 μM of the fas-1 domain (βig-h3 D-IV) prepared in Example 1 above was added together. A control was either treated with BSA or had no treatment. Thereafter, the cells were incubated at 37° C. for 16-18 hours. The cells were photographed, and endothelial tubes were counted and averaged.
For this purpose, the second fas-1 domain of βig-h3 (βig-h3 D-II) was prepared in the same manner as in Example 1-1 above. Since each domain of stabilin-II is insoluble, it was prepared in the form of soluble protein by cloning into the BamHI/XhoI sites of a Nus-conjugated pET43.1 vector (Novagen, USA). The prepared recombinant proteins were named “Nus-fas3” and “Nus-fas7”, respectively. A control to the second fas-1 domain of βig-h3 was treated with BSA, and a control to the fas-1 domain of stabilin-II was treated with a Nus protein. Thereafter, an endothelial tube formation assay was performed in the same manner as in Example 9-1.

B1: fas-1 domain: recombinant protein containing the fourth fas-1 domain of human βig-h3 (SEQ ID NO: 64) (protein, listed as Homo sapiens)
chain: MGTVMDVLKGDNRFSMLVAAIQSAGLTETLNREGVYTVFAPTNEAFRALPPRERSRLLGDAKELANILKYHIGDEILVSGGIGALVRLKSLQGDKLEVSLKNNVVSVNKEPVAEPDIMATNGVVHVITNVL
- inhibition of adhesion of HUVECs to collagen ([1]; plate coated with 10 μg/ml collagen): only partially inhibited
- inhibition of adhesion of HUVECs to fibronectin ([1]; plate coated with 10 μg/ml fibronectin): completely inhibited
- inhibition of adhesion of HUVECs to vitronectin ([1]; plate coated with 10 μg/ml vitronectin): completely inhibited
- inhibition of migration of HUVECs to collagen ([2]; transwell coated with collagen): partially inhibited
- inhibition of migration of HUVECs toward fibronectin ([2]; transwell coated with fibronectin): completely inhibited
- inhibition of migration of HUVECs toward vitronectin ([2]; transwell coated with vitronectin): completely inhibited
- induction of apoptosis of HUVECs [3]: induced the apoptosis of HUVECs in a dose-dependent manner
- induction of apoptosis of β5/HEK293 cells [4]: not induced
- inhibition of endothelial tube formation ([5]; 5 μM or 10 μM, 16-18 hours): inhibited the formation of endothelial tubes on Matrigel in a dose-dependent manner
- in vitro angiogenesis inhibitory effect compared with YH motif-containing peptide fragment of 18 amino acids ([5]; 10 μM fas-1 domain vs 1 mM YH peptide): much higher
